{"source": "paper PMC7293249", "about": "(Nature Communications, 2020)", "key": {"[1]": {"molecular_target": "T1, monkey activated protein C (Macaca sp. (monkey plasma, species not …, UniProt A0A1D5QSH6))", "assay": "cell-based or functional assay"}, "[2]": {"molecular_target": "T2, human activated protein C (Homo sapiens)", "T2 chain 1": "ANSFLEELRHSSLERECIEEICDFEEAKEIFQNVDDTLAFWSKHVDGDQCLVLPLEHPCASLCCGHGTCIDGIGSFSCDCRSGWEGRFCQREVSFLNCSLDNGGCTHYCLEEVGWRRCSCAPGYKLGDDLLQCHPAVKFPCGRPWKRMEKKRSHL", "T2 chain 2": "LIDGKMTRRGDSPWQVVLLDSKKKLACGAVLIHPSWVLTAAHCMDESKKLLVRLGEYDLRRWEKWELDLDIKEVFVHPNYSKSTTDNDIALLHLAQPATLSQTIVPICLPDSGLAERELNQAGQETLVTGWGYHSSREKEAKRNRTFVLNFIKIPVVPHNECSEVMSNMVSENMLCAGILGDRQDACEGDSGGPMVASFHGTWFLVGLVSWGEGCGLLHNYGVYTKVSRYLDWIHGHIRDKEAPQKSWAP", "assay": "cell-based or functional assay"}, "[3]": {"molecular_target": "T3, Phe–Pro–Arg–chloromethylketone active-site-blocked APC (PPACK-hAPC) (Homo sapiens, UniProt P04070, active site blocked by Phe–Pro–Arg–chloromethylketone (PPACK))", "T3 construct": "also called PPACK-APC", "assay": "ELISA; PPACK-hAPC or hAPC coated onto a MaxiSorp plate at 100 ng per well overnight; IgG or Fab at concentrations starting at 20 nM", "details": "both partners purified"}, "human FVIIa": {"molecular_target": "human FVIIa (Homo sapiens, UniProt P08709)", "assay": "ELISA; data not shown; human FIIa, FVIIa, FIXa, FXa, FXIa, FXIIa coated directly on Maxisorp plates at 5–10 µg/mL; anti-APC antibodies at 20 nM", "details": "both partners purified"}, "human FIXa": {"molecular_target": "human FIXa (Homo sapiens, UniProt P00740)", "assay": "ELISA; data not shown; human FIIa, FVIIa, FIXa, FXa, FXIa, FXIIa coated directly on Maxisorp plates at 5–10 µg/mL; anti-APC antibodies at 20 nM", "details": "both partners purified"}, "human FXa": {"molecular_target": "human FXa (Homo sapiens, UniProt P00742)", "assay": "ELISA; data not shown; human FIIa, FVIIa, FIXa, FXa, FXIa, FXIIa coated directly on Maxisorp plates at 5–10 µg/mL; anti-APC antibodies at 20 nM", "details": "both partners purified"}, "human FXIa": {"molecular_target": "human FXIa (Homo sapiens, UniProt P03951)", "assay": "ELISA; data not shown; human FIIa, FVIIa, FIXa, FXa, FXIa, FXIIa coated directly on Maxisorp plates at 5–10 µg/mL; anti-APC antibodies at 20 nM", "details": "both partners purified"}, "human FXIIa": {"molecular_target": "human FXIIa (Homo sapiens, UniProt P00748)", "assay": "ELISA; data not shown; human FIIa, FVIIa, FIXa, FXa, FXIa, FXIIa coated directly on Maxisorp plates at 5–10 µg/mL; anti-APC antibodies at 20 nM", "details": "both partners purified"}, "human FIIa": {"molecular_target": "T4, human FIIa (Homo sapiens, UniProt P00734)", "T4 construct": "human FIIa (thrombin), light chain; human FIIa (thrombin), heavy (catalytic) chain; also called thrombin", "assay": "ELISA; data not shown; human FIIa, FVIIa, FIXa, FXa, FXIa, FXIIa coated directly on Maxisorp plates at 5–10 µg/mL; anti-APC antibodies at 20 nM", "details": "both partners purified"}, "[4]": {"molecular_target": "T2, human activated protein C", "assay": "ELISA; hAPC or hPC coated directly on Maxisorp plates at 100 ng/well in PBS/Ca2+; antibodies titrated, 1 h at RT; detection with HRP anti-human Fc", "details": "both partners purified"}, "[5]": {"molecular_target": "T1, monkey activated protein C", "assay": "ELISA; data not shown; species cross-reactivity; species' APC or PC coated directly on Maxisorp plates at 100 ng/well in PBS/Ca2+; antibodies titrated", "details": "both partners purified"}, "[6]": {"molecular_target": "T5, rabbit activated protein C (Oryctolagus cuniculus, UniProt Q28661)", "T5 construct": "also called rabbit APC", "assay": "ELISA; data not shown; species cross-reactivity; species' APC or PC coated directly on Maxisorp plates at 100 ng/well in PBS/Ca2+; antibodies titrated", "details": "both partners purified"}, "dog activated protein C": {"molecular_target": "T6, dog activated protein C (Canis lupus familiaris, UniProt Q28278)", "T6 construct": "also called dog APC", "assay": "ELISA; data not shown; species cross-reactivity; species' APC or PC coated directly on Maxisorp plates at 100 ng/well in PBS/Ca2+; antibodies titrated", "details": "both partners purified"}, "[7]": {"molecular_target": "T7, monkey protein C (zymogen) (Macaca sp. (monkey plasma, species not …, UniProt A0A1D5QSH6))", "T7 construct": "monkey protein C zymogen, light chain; also called monkey PC", "assay": "ELISA; data not shown; species cross-reactivity; species' APC or PC coated directly on Maxisorp plates at 100 ng/well in PBS/Ca2+; antibodies titrated", "details": "both partners purified"}, "[8]": {"molecular_target": "T2, human activated protein C", "assay": "SPR; Biacore T200, 25 °C, HBS-P+ (10 mM HEPES pH 7.4, 150 mM NaCl, 0.05% P20) with 1 mg/mL BSA; mAbs captured by immobilised mouse anti-human Fc antibody on CM5; hAPC injected at 1.56-200 nM, hPC at 1.56-1000 nM; 1:1 Langmuir fit", "details": "both partners purified"}, "[9]": {"molecular_target": "T8, human protein C (zymogen) (Homo sapiens, UniProt P04070)", "T8 construct": "human protein C zymogen, light chain; also called hPC; PC; source: bought: plasma-derived, Enzyme Research Laboratories", "assay": "SPR; Biacore T200, 25 °C, HBS-P+ (10 mM HEPES pH 7.4, 150 mM NaCl, 0.05% P20) with 1 mg/mL BSA; mAbs captured by immobilised mouse anti-human Fc antibody on CM5; hAPC injected at 1.56-200 nM, hPC at 1.56-1000 nM; 1:1 Langmuir fit", "details": "both partners purified"}, "[10]": {"molecular_target": "T9, plasma-derived hAPC-Gla-domainless (APC-GD) (Homo sapiens, UniProt P04070)", "T9 construct": "also called APC (in the crystal structures); source: bought: plasma-derived, Enzyme Research Laboratories", "assay": "ELISA; APC-binding ELISA of the purified Fabs on human APC and Gla-domainless APC; format not told", "details": "both partners purified"}}}
{"binder": "type II anti-APC mAb TPP-4885 (BAY1896502) (antibody, V domains shown, humanized/optimized from mouse HAPC1573; variable region from the Fab joined to the hIgG2 constant region (CH1-CH2-CH3); humanized/optimized from mouse HAPC1573 (kappa); hIgG2; Derived from HAPC1573 (mIgG1/k) by humanization and optimization; also called type II mAb; BAY 1896052; source: HEK293-6E, transiently co-transfected (pTT5), purified (protein A, SEC)) VH: EVQLVESGGGLVQPGGSLRLSCAASGFTFSNYYLNWVRQAPGKGLEWVGDIRLKSNNYEKHYAESVKGRFTISRDDSKNSLYLQMNSLKTEDTAVYYCAREGDYFDYWGQGTLVTVSS VL: DIVLTQSPASLAVSPGQRATITCKASESVDSFGATFMHWYQQKPGQPPKLLIYLASNLESGVPARFSGSGSGTDFTLTINPVEADDTANYYCQQNNEDPYTFGQGTKLEIK", "values": [{"measurement": "Protac-aPTT in FVIII-antibody-induced hemophilia A monkey plasma, inhibition of APC anticoagulant activity, IC50", "setting": "[1]", "result": 19.3, "unit": "nM"}, {"measurement": "Protac-aPTT in FVIII-antibody-treated normal human plasma, IC50", "setting": "[2]", "result": 12, "unit": "nM"}, {"measurement": "Protac-aPTT in hemophilia A plasma, inhibition of APC activity, IC50", "setting": "[2]", "result": 11.6, "unit": "nM"}, {"measurement": "Protac-aPTT in normal human plasma, inhibition of APC anticoagulant activity, IC50", "setting": "[2]", "result": "~7", "unit": "nM"}, {"measurement": "binding result", "setting": "[3]", "result": "binds"}, {"measurement": "binding result", "setting": "human FVIIa", "result": "no binding (tested: 20 nM)"}, {"measurement": "binding result", "setting": "human FIXa", "result": "no binding (tested: 20 nM)"}, {"measurement": "binding result", "setting": "human FXa", "result": "no binding (tested: 20 nM)"}, {"measurement": "binding result", "setting": "human FXIa", "result": "no binding (tested: 20 nM)"}, {"measurement": "binding result", "setting": "human FXIIa", "result": "no binding (tested: 20 nM)"}, {"measurement": "binding result", "setting": "human FIIa", "result": "no binding (tested: 20 nM)"}, {"measurement": "EC50", "setting": "[4]", "result": 0.8, "unit": "nM"}, {"measurement": "EC50", "setting": "[5]", "result": "~1", "unit": "nM"}, {"measurement": "binding result", "setting": "[6]", "result": "no binding"}, {"measurement": "binding result", "setting": "dog activated protein C", "result": "no binding"}, {"measurement": "binding result", "setting": "[7]", "result": "no binding"}, {"measurement": "Kd", "setting": "[8]", "result": 10, "unit": "nM"}, {"measurement": "binding result", "setting": "[9]", "result": "no binding (tested: 1000 nM)"}]}
{"binder": "type I anti-APC mAb TPP-2312 (BAY1316786) (antibody, V domains shown, variable region as the heavy chain of C25K23 with S56A in CDR2, joined to the hIgG2 constant region (CH1-CH2-CH3); as the light chain of C25K23 with K55R in CDR2; hIgG2; Candidate C25K23 was germlined and optimized to become TPP-2312; also called type I mAb; source: HEK293-6E, transiently co-transfected (pTT5), purified (protein A, SEC)) VH: EVQLLESGGGLVQPGGSLRLSCAASGFTFSSYWMSWVRQAPGKGLEWVSGVSWNGARTHYADSVKGRFTISRDNSKNTLYLQMNSLRAEDTAVYYCALTGRSGWMRFPNWFDPWGQGTLVTVSS VL: QSVLTQPPSVSGAPGQRVTISCTGSSSNIGAAYDVHWYQQLPGTAPKLLIYGNNKRPSGVPDRFSGSKSGTSASLAITGLQAEDEADYYCQSYDSSLSGSVFGGGTKLTVL", "values": [{"measurement": "Protac-aPTT in FVIII-antibody-induced hemophilia A monkey plasma, inhibition of APC anticoagulant activity, IC50", "setting": "[1]", "result": 9.3, "unit": "nM"}, {"measurement": "binding result", "setting": "human FVIIa", "result": "no binding (tested: 20 nM)"}, {"measurement": "binding result", "setting": "human FIXa", "result": "no binding (tested: 20 nM)"}, {"measurement": "binding result", "setting": "human FXa", "result": "no binding (tested: 20 nM)"}, {"measurement": "binding result", "setting": "human FXIa", "result": "no binding (tested: 20 nM)"}, {"measurement": "binding result", "setting": "human FXIIa", "result": "no binding (tested: 20 nM)"}, {"measurement": "binding result", "setting": "human FIIa", "result": "no binding (tested: 20 nM)"}, {"measurement": "EC50", "setting": "[5]", "result": "~1", "unit": "nM"}, {"measurement": "EC50", "setting": "[6]", "result": "~1", "unit": "nM"}, {"measurement": "EC50", "setting": "dog activated protein C", "result": "~1", "unit": "nM"}]}
{"binder": "hu1573Fab (type II Fab, TPP-5040) (Fab, V domains shown, Humanized Fab of mouse HAPC1573; also called h1573Fab; type II (h1573) Fab; source: QMCF cells (CHO-based), transiently transfected (pTT5), purified from conditioned medium (KappaSelect, SEC)) VH: EVQLVESGGGLVQPGGSLRLSCAASGFTFSNYYLNWVRQAPGKGLEWVGDIRLKSNNYEKHYAESVKGRFTISRDDSKNSLYLQMNSLKTEDTAVYYCAREGDYFDYWGQGTLVTVSS VL: DIVLTQSPASLAVSPGQRATITCKASESVDSFGATFMHWYQQKPGQPPKLLIYLASNLESGVPARFSGSGSGTDFTLTINPVEADDTANYYCQQNNEDPYTFGQGTKLEIK", "values": [{"measurement": "binding result", "setting": "[3]", "result": "binds"}]}
{"binder": "C25K23Fab (type I Fab, TTP-2781) (Fab, V domains shown, Parent of TPP-2312; also called type I (C25K23) Fab; source: E. coli, purified (Protein A chromatography)) VH: EVQLLESGGGLVQPGGSLRLSCAASGFTFSSYWMSWVRQAPGKGLEWVSGVSWNGSRTHYADSVKGRFTISRDNSKNTLYLQMNSLRAEDTAVYYCALTGRSGWMRFPNWFDPWGQGTLVTVTS VL: QSVLTQPPSASGTPGQRVTISCTGSSSNIGAAYDVHWYQQLPGTAPKLLIYGNNKRPSGVPDRFSGSKSGTSASLAISGLRSEDEADYYCQSYDSSLSGSVFGGGTKLTVL", "values": [{"measurement": "EC50", "setting": "[10]", "result": "2 to 4", "unit": "nM"}]}
